Measured values published in the domain aggregation screens of Martell et al. (2025).

Assay: soluble fraction after stress (log2 fold change); higher = more stays soluble; pooled small domains, quantitative proteomics
Conditions: stress: pH 4
Summary of the method: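 Pooled custom libraries of small protein domains were stressed at pH 4 and then measured by high-throughput quantitative proteomics. The fold change in the amount of each domain that stays soluble after the acid stress serves as a measure of aggregation propensity. Fold changes are given on a log2 scale, and higher values mean more of the domain stayed soluble.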

HMVSDSAELSAFVADVIKENAQAVADYKGGKTNVFGWLMGQIIKKSGGKATPAAAAALLKAELEK
soluble fraction (log2): -0.14

HMSHDTLVYRLAQMLVKLNQGEKLDPQQLAEEFGVNLRTIQRDLNVRFAYLQLEKTDGRYHLDPTFL
soluble fraction (log2): -0.241

HMGVHSVVPDIKNKHYGEAKAILAANGLSIEISDSIYDRSVAPGTVVESWPKAGAIVKGDRAVFVTLTAF
soluble fraction (log2): -1.17

HMLDSDARRRGLIEYLSLNGYATMRQLAGEFDVSINTIQRDITYLARYYPLETAYGRYGGGVYFEQNWQ
soluble fraction (log2): -1.04

HMLAVEKIEFVGNERIAAADLESALSALYDRPMTTISDDEIAKLLSGFSLIETFTSQAEPPHTLRVNIRE
soluble fraction (log2): -0.452

HMQEAGLITQRIREMREKENWTQEYMAEQLGMSENGYAKIERGESNLSLKRLQQIADIFEVESAELLK
soluble fraction (log2): -0.566

HMISDISEIEAIIVEVLKVFPNQLQEYLDGKEKILSFFVGQVMQRTKGRANPSLVNEILKEKIKN
soluble fraction (log2): -0.417

HMDFFVLVGAYKTPDEAETIRAKIAFSGLDSSVSHGNDGRYRVRIGPFHSEGDARKAQSTLRANDIPGQII
soluble fraction (log2): 0.18

HMGQLIGKEEAKQIALSRAGVAEGDISRYESELDTDDGKTKYEISFHVGRVEYDIEINAVTGAVEKFEMDN
soluble fraction (log2): 0.0113

HMEDKFEYQGELKSLIEPTSFSELVSALNVRDTLQAIIDFAMREEDTSGYEELKVRQNDYIQEYLNSIGNF
soluble fraction (log2): -1.28

HMRTITIDDSIAGKRLDEALTLLGAESSRTKVKLLFSSPNGVLVNGEKEKPHYRVEAGDVIQFGELPKK
soluble fraction (log2): -0.104

HMSNSMISKDKAMSIALAKVSGATSSNIYIELEKDDGRYTYEGEINFNNKEYEFEIDAYTGNILKWEVDSI
soluble fraction (log2): -0.0257

HMIMDQTILRKQRELTDRLNRYRNEYYNHNKPSVSDEVYDRLFDELQSLEKETGVQMANSPTTTVG
soluble fraction (log2): 0.0972

HMAAEGARNNSLFNSLRERALEVSSHNELEQIAFKMNETNIPPLRASEVISVVNSVWKNRISNQIIP
soluble fraction (log2): -0.0841

HMETFGEKDLDELIGRNVELITHDGKVREGLVDSVDRYNVSLVRYLDAGEVAMMVRRREVKAVRLK
soluble fraction (log2): -1.12

HMYNKKAYVNTNSDFLNVRSEASTESSVVDKLARGTEVNIVGNIQNGFYPIVLNEKNAWVSSDWISFEKPT
soluble fraction (log2): ≥ 0.43

HMSHLTKKQEEVLLFIRDYYEEEGRSPSYSDIQHHFGLKSKSSVQDYIGYLKKAGFLQKSVGSRAIELV
soluble fraction (log2): ≥ 0.43

HMRRPRGVFNLVPGKRFGFITPDGGGEDVFAHLANVRAGHVAEDRNAVEYGIGRGPDGRDQAVDIVPMP
soluble fraction (log2): 0.00891

HMGLASEVKTEDVLNEEKYDFEPDLIGNNNEAIYQNKQTGSYVLFDRNQNKVTKVLSAGEVLNHSKYNE
soluble fraction (log2): 0.342

HMINAQETEIYRFLIEKANRLYSMVLGLKREELMTATRQFEEEVKHSSIHHLPKIYQAFSSYLELLERG
soluble fraction (log2): -0.207

HMGMGIGQIIKEKRTALKMTQNELAERLGVSQQSVTGWENNAAVPRESAVRGMMDIFGLSRNELFGEP
soluble fraction (log2): 0.0969

HMKGMIKVASMSLGADLGLYSRHLKYLGIVHRVVEESGGQSVYIQKLNDLHTAKESLELYLKNELKI
soluble fraction (log2): -0.476

HMDKELILLWDRVKSKVWQMDIQDSQVANWFQRNYHLTVRLRDFDPPVPPDKFTAEQLASFIKDIERHT
soluble fraction (log2): -0.000327

HMASLSRRELEVLELLALRLTVKEVAERLVISELTAKRHTSNIYQKLGVNRRRDALAAAQARGLLGAR
soluble fraction (log2): -1.09

HMVEMIGLQMVGKSGIASTVLRPSGKVRIDGVVYDAVSEDGFIEKGQAVKVLRYETGQVYVEKL
soluble fraction (log2): 0.0132

HMHVLNEEYYNRIKAIQFTMNHDDGNSLNDIEKSDIILLGVSRTSKTPTSIYLANRGLRTSNIPLINEK
soluble fraction (log2): -0.316

HMDVQEILGALSPDEKAAIGQLTSGEKHIDQIIAATRLPAARITSALTLLQIKGYVRALPGKRFSLTEKQ
soluble fraction (log2): ≥ 0.43

HMDKPVIEDVSFDDLAYMVGERVIIRTHLRSTRDGELKSFNRAGILVSLRNRPGMELEIPRSTVASAQVVW
soluble fraction (log2): -0.744

HMAVANEAIANINMKEVKQAIHNLPEIFKNPFLLYFDGYKYHEIAEMLDEPLGTIKSRIHFARKLLKSHI
soluble fraction (log2): 0.22

HMSLQDYYQVLGVFYNAGDKEIKRRWKELINQYHPDLAQAKGASPEEIENYTLKMAEINNAYEQIMKSRKA
soluble fraction (log2): 0.0253
